From patent publication US20100130424A1 (Janssen / Centocor, published 2010)
No end group written: not given here. *: point of attachment. Succinimide(1-Et,3-yl) = CCN1C(=O)CC(*)C1=O

T1: human CRH receptor type 2 (human, UniProt Q13324 1-411)
T1 sequence (looked up): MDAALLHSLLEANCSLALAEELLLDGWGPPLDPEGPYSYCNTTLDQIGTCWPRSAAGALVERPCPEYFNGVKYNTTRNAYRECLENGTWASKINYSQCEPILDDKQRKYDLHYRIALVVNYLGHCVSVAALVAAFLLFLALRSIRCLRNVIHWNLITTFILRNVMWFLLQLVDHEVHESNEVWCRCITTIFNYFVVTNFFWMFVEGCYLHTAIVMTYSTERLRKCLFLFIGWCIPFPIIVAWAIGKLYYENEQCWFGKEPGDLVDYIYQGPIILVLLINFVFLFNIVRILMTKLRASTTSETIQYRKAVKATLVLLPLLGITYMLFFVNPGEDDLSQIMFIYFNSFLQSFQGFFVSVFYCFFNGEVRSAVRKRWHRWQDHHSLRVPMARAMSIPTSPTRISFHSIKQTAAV


Target: T1, human CRH receptor type 2
Experiment: cell-based or functional assay

Binder	Log DR against h-SCP, cAMP [log10 ratio]	pA50, cAMP
TKFCLSLDVPTNIMNLLFNIAKAKNLRAQAAANAHLMAQI-NH2 [Cys-variant CRHR2 peptide agonist, SEQ ID NO: 5]	0.76	8.93 -log M
TKFTLSLDVPTNIMNLLFC(Succinimide(1-Et,3-yl))IAKAKNLRAQAAANAHLMAQI-NH2 (N-terminus assumed; SMILES CC[C@H](C)[C@H](NC(=O)[C@H](CCC(N)=O)NC(=O)[C@H](C)NC(=O)[C@H](CCSC)NC(=O)[C@H](CC(C)C)NC(=O)[C@H](Cc1c[nH]cn1)NC(=O)[C@H](C)NC(=O)[C@H](CC(N)=O)NC(=O)[C@H](C)NC(=O)[C@H](C)NC(=O)[C@H](C)NC(=O)[C@H](CCC(N)=O)NC(=O)[C@H](C)NC(=O)[C@H](CCCNC(=N)N)NC(=O)[C@H](CC(C)C)NC(=O)[C@H](CC(N)=O)NC(=O)[C@H](CCCCN)NC(=O)[C@H](C)NC(=O)[C@H](CCCCN)NC(=O)[C@H](C)NC(=O)[C@@H](NC(=O)[C@H](CSC1CC(=O)N(CC)C1=O)NC(=O)[C@H](Cc1ccccc1)NC(=O)[C@H](CC(C)C)NC(=O)[C@H](CC(C)C)NC(=O)[C@H](CC(N)=O)NC(=O)[C@H](CCSC)NC(=O)[C@@H](NC(=O)[C@H](CC(N)=O)NC(=O)[C@@H](NC(=O)[C@@H]1CCCN1C(=O)[C@@H](NC(=O)[C@H](CC(=O)O)NC(=O)[C@H](CC(C)C)NC(=O)[C@H](CO)NC(=O)[C@H](CC(C)C)NC(=O)[C@@H](NC(=O)[C@H](Cc1ccccc1)NC(=O)[C@H](CCCCN)NC(=O)[C@@H](N)[C@@H](C)O)[C@@H](C)O)C(C)C)[C@@H](C)O)[C@@H](C)CC)[C@@H](C)CC)C(N)=O) [Cys-variant of stresscopin peptide with N-Ethylsuccinimide (NES) reactive group, SEQ ID NO: 52]	0.05	9.42 -log M
TKFTLSLDVPTNIMNC(Succinimide(1-Et,3-yl))LFNIAKAKNLRAQAAANAHLMAQI-NH2 (N-terminus assumed; SMILES CC[C@H](C)[C@H](NC(=O)[C@H](CCC(N)=O)NC(=O)[C@H](C)NC(=O)[C@H](CCSC)NC(=O)[C@H](CC(C)C)NC(=O)[C@H](Cc1c[nH]cn1)NC(=O)[C@H](C)NC(=O)[C@H](CC(N)=O)NC(=O)[C@H](C)NC(=O)[C@H](C)NC(=O)[C@H](C)NC(=O)[C@H](CCC(N)=O)NC(=O)[C@H](C)NC(=O)[C@H](CCCNC(=N)N)NC(=O)[C@H](CC(C)C)NC(=O)[C@H](CC(N)=O)NC(=O)[C@H](CCCCN)NC(=O)[C@H](C)NC(=O)[C@H](CCCCN)NC(=O)[C@H](C)NC(=O)[C@@H](NC(=O)[C@H](CC(N)=O)NC(=O)[C@H](Cc1ccccc1)NC(=O)[C@H](CC(C)C)NC(=O)[C@H](CSC1CC(=O)N(CC)C1=O)NC(=O)[C@H](CC(N)=O)NC(=O)[C@H](CCSC)NC(=O)[C@@H](NC(=O)[C@H](CC(N)=O)NC(=O)[C@@H](NC(=O)[C@@H]1CCCN1C(=O)[C@@H](NC(=O)[C@H](CC(=O)O)NC(=O)[C@H](CC(C)C)NC(=O)[C@H](CO)NC(=O)[C@H](CC(C)C)NC(=O)[C@@H](NC(=O)[C@H](Cc1ccccc1)NC(=O)[C@H](CCCCN)NC(=O)[C@@H](N)[C@@H](C)O)[C@@H](C)O)C(C)C)[C@@H](C)O)[C@@H](C)CC)[C@@H](C)CC)C(N)=O) [Cys-variant of stresscopin peptide with N-Ethylsuccinimide (NES) reactive group, SEQ ID NO: 54]	-0.08	9.55 -log M
TKFTLSLDVPTNIMNLLFNIAKAC(Succinimide(1-Et,3-yl))NLRAQAAANAHLMAQI-NH2 (N-terminus assumed; SMILES CC[C@H](C)[C@H](NC(=O)[C@H](CCC(N)=O)NC(=O)[C@H](C)NC(=O)[C@H](CCSC)NC(=O)[C@H](CC(C)C)NC(=O)[C@H](Cc1c[nH]cn1)NC(=O)[C@H](C)NC(=O)[C@H](CC(N)=O)NC(=O)[C@H](C)NC(=O)[C@H](C)NC(=O)[C@H](C)NC(=O)[C@H](CCC(N)=O)NC(=O)[C@H](C)NC(=O)[C@H](CCCNC(=N)N)NC(=O)[C@H](CC(C)C)NC(=O)[C@H](CC(N)=O)NC(=O)[C@H](CSC1CC(=O)N(CC)C1=O)NC(=O)[C@H](C)NC(=O)[C@H](CCCCN)NC(=O)[C@H](C)NC(=O)[C@@H](NC(=O)[C@H](CC(N)=O)NC(=O)[C@H](Cc1ccccc1)NC(=O)[C@H](CC(C)C)NC(=O)[C@H](CC(C)C)NC(=O)[C@H](CC(N)=O)NC(=O)[C@H](CCSC)NC(=O)[C@@H](NC(=O)[C@H](CC(N)=O)NC(=O)[C@@H](NC(=O)[C@@H]1CCCN1C(=O)[C@@H](NC(=O)[C@H](CC(=O)O)NC(=O)[C@H](CC(C)C)NC(=O)[C@H](CO)NC(=O)[C@H](CC(C)C)NC(=O)[C@@H](NC(=O)[C@H](Cc1ccccc1)NC(=O)[C@H](CCCCN)NC(=O)[C@@H](N)[C@@H](C)O)[C@@H](C)O)C(C)C)[C@@H](C)O)[C@@H](C)CC)[C@@H](C)CC)C(N)=O) [Cys-variant of stresscopin peptide with N-Ethylsuccinimide (NES) reactive group, SEQ ID NO: 50]	-0.01	9.48 -log M
TKFTLCLDVPTNIMNLLFNIAKAKNLRAQAAANAHLMAQI-NH2 [Cys-variant CRHR2 peptide agonist, SEQ ID NO: 7]	2.08	7.6 -log M
TKFTCSLDVPTNIMNLLFNIAKAKNLRAQAAANAHLMAQI-NH2 [Cys-variant CRHR2 peptide agonist, SEQ ID NO: 6]	0.61	9.07 -log M
TKFTLSLDVPTNIMNLLFNC(Succinimide(1-Et,3-yl))AKAKNLRAQAAANAHLMAQI-NH2 (N-terminus assumed; SMILES CC[C@H](C)[C@H](NC(=O)[C@H](CCC(N)=O)NC(=O)[C@H](C)NC(=O)[C@H](CCSC)NC(=O)[C@H](CC(C)C)NC(=O)[C@H](Cc1c[nH]cn1)NC(=O)[C@H](C)NC(=O)[C@H](CC(N)=O)NC(=O)[C@H](C)NC(=O)[C@H](C)NC(=O)[C@H](C)NC(=O)[C@H](CCC(N)=O)NC(=O)[C@H](C)NC(=O)[C@H](CCCNC(=N)N)NC(=O)[C@H](CC(C)C)NC(=O)[C@H](CC(N)=O)NC(=O)[C@H](CCCCN)NC(=O)[C@H](C)NC(=O)[C@H](CCCCN)NC(=O)[C@H](C)NC(=O)[C@H](CSC1CC(=O)N(CC)C1=O)NC(=O)[C@H](CC(N)=O)NC(=O)[C@H](Cc1ccccc1)NC(=O)[C@H](CC(C)C)NC(=O)[C@H](CC(C)C)NC(=O)[C@H](CC(N)=O)NC(=O)[C@H](CCSC)NC(=O)[C@@H](NC(=O)[C@H](CC(N)=O)NC(=O)[C@@H](NC(=O)[C@@H]1CCCN1C(=O)[C@@H](NC(=O)[C@H](CC(=O)O)NC(=O)[C@H](CC(C)C)NC(=O)[C@H](CO)NC(=O)[C@H](CC(C)C)NC(=O)[C@@H](NC(=O)[C@H](Cc1ccccc1)NC(=O)[C@H](CCCCN)NC(=O)[C@@H](N)[C@@H](C)O)[C@@H](C)O)C(C)C)[C@@H](C)O)[C@@H](C)CC)C(N)=O) [Cys-variant of stresscopin peptide with N-Ethylsuccinimide (NES) reactive group, SEQ ID NO: 51]	0.68	8.79 -log M
TCFTLSLDVPTNIMNLLFNIAKAKNLRAQAAANAHLMAQI (NES-PEG (about 20 kDa) on Cys 2; C-terminal amide) [Pegylated Cys-variant CRHR2 peptide agonist (NES linker, PEG about 20 kDa), SEQ ID NO: 56]	~2.34	~7.2 -log M
TKCTLSLDVPTNIMNLLFNIAKAKNLRAQAAANAHLMAQI (NES-PEG (about 20 kDa) on Cys 3; C-terminal amide) [Pegylated Cys-variant CRHR2 peptide agonist (NES linker, PEG about 20 kDa), SEQ ID NO: 57]	~1.9	~7.64 -log M
TKFCLSLDVPTNIMNLLFNIAKAKNLRAQAAANAHLMAQI (NES-PEG (about 20 kDa) on Cys 4; C-terminal amide) [Pegylated Cys-variant CRHR2 peptide agonist (NES linker, PEG about 20 kDa), SEQ ID NO: 58]	~2.4	~7.14 -log M
TCFTLSLDVPTNIMNLLFNIAKAKNLRAQAAANAHLMAQI-NH2 [Cys-variant CRHR2 peptide agonist, SEQ ID NO: 3]	0.72	8.97 -log M

More lines, now with the values ahead:

Log DR against h-SCP, cAMP [log10 ratio]	pA50, cAMP	Binder
1.03	8.65 -log M	TKCTLSLDVPTNIMNLLFNIAKAKNLRAQAAANAHLMAQI-NH2 [Cys-variant CRHR2 peptide agonist, SEQ ID NO: 4]
~2.22	~7.25 -log M	TKFTLSLDVPTNIMNLC(Succinimide(1-Et,3-yl))FNIAKAKNLRAQAAANAHLMAQI-NH2 (N-terminus assumed; SMILES CC[C@H](C)[C@H](NC(=O)[C@H](CCC(N)=O)NC(=O)[C@H](C)NC(=O)[C@H](CCSC)NC(=O)[C@H](CC(C)C)NC(=O)[C@H](Cc1c[nH]cn1)NC(=O)[C@H](C)NC(=O)[C@H](CC(N)=O)NC(=O)[C@H](C)NC(=O)[C@H](C)NC(=O)[C@H](C)NC(=O)[C@H](CCC(N)=O)NC(=O)[C@H](C)NC(=O)[C@H](CCCNC(=N)N)NC(=O)[C@H](CC(C)C)NC(=O)[C@H](CC(N)=O)NC(=O)[C@H](CCCCN)NC(=O)[C@H](C)NC(=O)[C@H](CCCCN)NC(=O)[C@H](C)NC(=O)[C@@H](NC(=O)[C@H](CC(N)=O)NC(=O)[C@H](Cc1ccccc1)NC(=O)[C@H](CSC1CC(=O)N(CC)C1=O)NC(=O)[C@H](CC(C)C)NC(=O)[C@H](CC(N)=O)NC(=O)[C@H](CCSC)NC(=O)[C@@H](NC(=O)[C@H](CC(N)=O)NC(=O)[C@@H](NC(=O)[C@@H]1CCCN1C(=O)[C@@H](NC(=O)[C@H](CC(=O)O)NC(=O)[C@H](CC(C)C)NC(=O)[C@H](CO)NC(=O)[C@H](CC(C)C)NC(=O)[C@@H](NC(=O)[C@H](Cc1ccccc1)NC(=O)[C@H](CCCCN)NC(=O)[C@@H](N)[C@@H](C)O)[C@@H](C)O)C(C)C)[C@@H](C)O)[C@@H](C)CC)[C@@H](C)CC)C(N)=O) [Cys-variant of stresscopin peptide with N-Ethylsuccinimide (NES) reactive group, SEQ ID NO: 53]
0.72	8.97 -log M	CKFTLSLDVPTNIMNLLFNIAKAKNLRAQAAANAHLMAQI-NH2 [Cys-variant CRHR2 peptide agonist, SEQ ID NO: 2]
~1.61	~7.93 -log M	CKFTLSLDVPTNIMNLLFNIAKAKNLRAQAAANAHLMAQI (NES-PEG (about 20 kDa) on Cys 1; C-terminal amide) [Pegylated Cys-variant CRHR2 peptide agonist (NES linker, PEG about 20 kDa), SEQ ID NO: 55]
~2.32	~7.22 -log M	TKFTCSLDVPTNIMNLLFNIAKAKNLRAQAAANAHLMAQI (NES-PEG (about 20 kDa) on Cys 5; C-terminal amide) [Pegylated Cys-variant CRHR2 peptide agonist (NES linker, PEG about 20 kDa), SEQ ID NO: 59]
